Test system: K4 kissing-loop RNA reporter
Assay: apparent KD of K4 kissing-loop reporter; higher = weaker reporter binding
Conditions: Eterna round: R107
Protocol: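 RNA-MaP round R107: designed RNA switches with theophylline, tryptophan, arginine or FMN aptamers are transcribed on-chip within common flanks. They are titrated with a labelled K4 kissing-loop RNA reporter in RNA-MaP buffer (100 mM Tris pH 7.5, 80 mM KCl, 4 mM MgCl2), without ligand or with the indicated ligand. Median apparent KD per design.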

[1] = input ligand: theophylline 20 uM
[2] = input ligand: tryptophan 2.4 mM
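Also: bound reporter read as fluorescence of individual clusters on recovered sequencing chips by microscopy, with normalized cluster intensities fitted with a binding model.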

Sequence | apparent KD of K4 kissing-loop reporter (input ligand: FMN 200 uM) | apparent KD of K4 kissing-loop reporter (input ligand: arginine 13.2 mM) | apparent KD of K4 kissing-loop reporter (input ligand: none) | apparent KD of K4 kissing-loop reporter [1] | apparent KD of K4 kissing-loop reporter [2]
AAACGUUGGUCUGAUACCAGCUGAUCGGAAACGAUCUUGCUGGAGUGAUGUUCCAGGAAAAGCCCUUGGCAGCAGACCGACGAAA [MAT - Same State Theophlline B - Mod of Eli - D25] | 901 nM | 714 nM | 1510 nM | 1260 nM | 894 nM
CUGGGUUGACGAAAAGUCAACAAACGAGAAGGAGCGCACGAAAGUGCAGGUAGGUCGCUCAGUCCAGUGAUGUUGGAUCAUCCAG [#SwitchBubble 9 #K4Late] | 265 nM | 763 nM | 687 nM | 840 nM | 323 nM
AUGUCUGAUAGCAGUGAUGUUGCUUCGGAUACCAGACGCGAUCUUGUCCCUUGGCAGCUGACACGGCACGUGCUAGGUUAGAAGG [whbob_Ex_Theo_A_th75] | 169 nM | 125 nM | 155 nM | 124 nM | 134 nM
GAUAUAGUGAUGUUAUAUAGGAAGGAGUUACGAGGACCGGUACGGCCGCCACUCGAAACGAGUGAUGAUUUGGGAGAUUGGGUUG [SSTryptA.P] | 364 nM | 359 nM | 395 nM | 430 nM | 332 nM
AGCUCAGAGUGACUCGAUAAGAGUCACAAACGAGGACCGGUACGGCCGCCACUCGAAAUAACGAGAGUGAUGUUCUCACUGAGCA [FiskerMod 11 - Jieux - Same State Tryptophan A] | 1150 nM | 635 nM | 1260 nM | 808 nM | 378 nM
AAACGCUUGAAUAACAAGCGAAUAAAUUCGCGAGGACCGGUACGGCCGCCACUCGCUAACUGCGAGUGAUGUUCGAUAAUAAAAU [Mat - Mod of OpenEnded 3 - D14] | 115 nM | 91.8 nM | 170 nM | 176 nM | 95 nM
GGUUGAAGUACCCGGAGUGAUGUUCCGGAUACCAGCAAACCAACUUGCCCUUGGCAGCCGUAUAGCGUCCGGUGGACCGAGCAUA [Soriesreve] | 98.5 nM | 70.3 nM | 77.4 nM | 76.2 nM | 78.7 nM
GCUAUGGUAGGAAGGAGCGCUUGUUCGGUCAUAUGAGUGAUGUUCGAGACUGAGCAUUUAUAGCAGGUAGGUCGCCUACUAUAGC [Arginine B K4 10] | 164 nM | 179 nM | 181 nM | 160 nM | 175 nM
UGAUACCAGACGGCCGCCACUCCCGUAAGUCAAAGACUUACGAAGAGAGUUUUUCAGUGAUGUUGGAGGACCGGGUCUGGUAUCU [FiskerMod 16 - Jieux - Exclusion - Tryptophan B] | 838 nM | 618 nM | 870 nM | 850 nM | 721 nM
GGGAGUAGUGCGGCCGCCACUGAGAAAGAAGAAGAAUAUAGUGAUGUUAUGUAGGAAAGGAAGAACAGGACCGGGCAUUAGAUUU [SSTRyptB.G] | 455 nM | 432 nM | 477 nM | 387 nM | 270 nM
AGUACAAUGGCGGCCGCCACUCAACAGCAGAUCAAAGAUCUGCUUCACUCAGUGAUGUUGAGUGAGAGGACCGGGCCUUUGUACA [Omei KL Tryp B SS B v4] | 793 nM | 614 nM | 783 nM | 853 nM | 216 nM
CUCGAGUGAUGUUCGAUUAUUUAUACAGAUACCAGUGAAUUUUAACACCCUUGGCAGCUGGUUGUAUCUUUGUAAUUUACACAAG [JR_ExcTheophyA_Sub005] | 120 nM | 168 nM | 113 nM | 151 nM | 93.6 nM
UGAUAGGACAGAAGGAGCGGAAGCUAGUCAAAGACUAGCAAACGUUAAACAGGAGUGAUGUUCCAGGUAGGUCGCUGUCCUAUCU [ArgBX 23 #SwitchBubble #StaticStem] | 124 nM | 115 nM | 126 nM | 133 nM | 119 nM
AACGUUUUGAGAAGGAGCGCGAUAAGCAGUGAUGUUGCUAUAAUUCUAUUUCUAUUUAAUUCGCAGGUAGGUCGCUCAAUACGUA [JR_SSArginiB_Sub019] | 136 nM | 134 nM | 134 nM | 138 nM | 119 nM
UUGAGCCUGACGCAAGUCAGGCUCUGCGAGCGAGGACCGGUACGGCCGCCACUCGGUGCAGUGAUGUUGCAUGGCCGCAAGGCCG [#2 Exclusion - Tryptophan A Attempt #17 (HarryS)] | 316 nM | 299 nM | 318 nM | 394 nM | 441 nM
ACGUAGUACGUAGGAUAUCAGAGAUCAGUUAGUGAGAUCGAGUGAUGUUCGAUCAUGUGUUCAGUUUGAGAAGGAUGUAGUAGGA [KL-SSFMN-B5] | 214 nM | 280 nM | 355 nM | 408 nM | 198 nM

Sequence | apparent KD of K4 kissing-loop reporter (input ligand: FMN 200 uM) | apparent KD of K4 kissing-loop reporter (input ligand: arginine 13.2 mM) | apparent KD of K4 kissing-loop reporter (input ligand: none) | apparent KD of K4 kissing-loop reporter [1] | apparent KD of K4 kissing-loop reporter [2]
GCCUACGCUGCAGGAUAUAGUUACAGCGACUUAGCCGUUGUAUGUCCAUGGUUCAGUGAUGUUGAACUAGAAGGGCAGCGUAGGC [#02 K4 FMN B Exclusion] | 285 nM | 127 nM | 132 nM | 134 nM | 154 nM
UAGUCUCGAGUCUGAGAUUACGGGUCAGAUACCAGACUAGAGAUAGUCCCUUGGCAGCUGAAGUUCAGUGAUGUUGAACGGAUUA [Theo B SS t10a] | 501 nM | 394 nM | 441 nM | 510 nM | 377 nM
ACACUAUCGUCAUAGACGGUAGUGAACACACAGGAUAUGAGUGAUGUUAGAAGGGUGUAAGACUGUAUCGAAUAGAUACAGUCAA [FmnA 7 #K4BetweenAptamer #OpenEnded] | 400 nM | 142 nM | 204 nM | 192 nM | 190 nM
AGAUAGGGCUGAAGGAGCGUCGGAAAAGAAAAGAUGAAAUCCAGUGAUGUUGGAUAAAUCCGACAGGUAGGUCGCAGUUUUAUGA [#01 K4 Arginine B Same State] | 126 nM | 129 nM | 133 nM | 161 nM | 120 nM
UUGAGCCGGACUCAAGUCCGGCUCUGCGAGCGAGGACCGGUACGGCCGCCACUCGGUGCAGUGAUGUUGCAUGGCCGCAAGGCCG [#2 Exclusion - Tryptophan A Attempt #13 (HarryS)] | 413 nM | 133 nM | 482 nM | 404 nM | 520 nM
UAGUAGUAGCGAGGAUAUGCAAUAGGCGAGUGAUGUUCGCCAGGCGGGCGUCGCAUAUAAGAAAGAGCAGAAGGCGCUAGGUAGA [SameState - FMN B / A] | 814 nM | 303 nM | 329 nM | 397 nM | 399 nM
CAAUGAGUAUAAGAUGAUAUCAUAACAGAAGGAGCGAGUGAUAACUCAGGUAGGUCGCUGAAUUUAUCGAGUGAUGUUCGAUAGA [whbob_SS_Arginine_A_sa117] | 202 nM | 162 nM | 226 nM | 193 nM | 176 nM
GGAGUUACCUGGGAUACCAGCCGGAGGCCCAGAGCUCGGAGUGAUGUUCUGGGAUGUUUCGGCCCUUGGCAGCUCUGGGUCUCCG [#2 Exclusion - Theophylline B Attempt #5 (HarryS)] | 1050 nM | 627 nM | 806 nM | 433 nM | 1410 nM
UGUACCGAGUCAGGAUAUCAAAAUAAUUGGAGUGAUGUUCCAAAUACGACUGACAAAGUCGGUCGAUGAGAAGGGACUUGGUACU [FmnBS 11 #SwitchBubble #StaticStem] | 118 nM | 122 nM | 122 nM | 163 nM | 114 nM
GAUAUAGUGAUGUUAUAUAAGAAGGAGUUACGAGGACCGGUACGGCCGCCACUCGAAACGAGUGAUGAUUUGGGAGAUUGGGUUG [SSTryptA.O] | 380 nM | 330 nM | 350 nM | 339 nM | 265 nM
AUUAUAAAGUCGGCCGCCACUGAGAGUAGUGAUGUUACUCUUUUCCUUUAGAUAUUAUAUUUUAUCAGGACCGGGACAUCUGAUU [JR_Nu_ExcTryptoB_Sub024] | 147 nM | 126 nM | 148 nM | 134 nM | 130 nM
GCCGUAGAUGGAAGGAGCGUGUCAAAGUGAUGUUUUGAUUAACUCCCUAAGGGAUAGAUGACACAGGUAGGUCGCCAUCUACGGC | 74.5 nM | 63.5 nM | 74.3 nM | 102 nM | 63.3 nM
UGUACCGAGUCAGGAUAUGACGACUAGUCAAAGACUGGUCGAAAAUCCAGUGAUGUUGGAAAUAAAUCAGAAGGGACUUGGUACU [FmnBS 16 #SwitchBubble #StaticStem] | 124 nM | 309 nM | 272 nM | 357 nM | 296 nM
CAUACGCAUGGAGGAUAUGAGAUUUCUCAUAUUAUUUAAUAUUCUCAGUGAUGUUGAGAUUUAAACUCAGAAGGCCAUGUGUAUG [Ex FMN B 6] | 388 nM | 235 nM | 239 nM | 279 nM | 242 nM
UGUACAUGUCAGCGAGUGAUGUUCGACGAUACCAGACUCGAUAGAGUCCCUUGGCAGCGUAACGCAUGCCAAACUGGCAUGUACU [#SwitchBubble 9 #K4Early] | 789 nM | 819 nM | 1120 nM | 646 nM | 773 nM
